B1: FLAG-IGFL2 (recombinant human IGFL2 with FLAG epitope tag) (ligand, not shown: small tags and cut ends)
chain: PAGSEPWLCQPAPRCGDKIYNPLEQCCYNDAIVSLSETRQCGPPCTFWPCFELCCLDSFGLTNDFVVKLKVQGVNSQCHSSPISSKCESRRRFP
notes: Signal peptide cleavage is predicted only
B2: FLAG-IGFL4 (recombinant human IGFL4 with FLAG epitope tag) (ligand, not shown: small tags and cut ends)
chain: EGVTDLRLWLCQPAPRCGEWTYNPLEQCCDDGVILDLNQTRLCGSSCTFWPCFQHCCLESLGSQNQTVVRFKVPGMKPDCKSSPITRICAQEYHPKSPVSRSDLI
B3: GITRL (ligand, UniProt Q9UNG2 52-177, looked up)
chain: ETAKEPCMAKFGPLPSKWQMASSEPPCVNKVSDWKLEILQNGLYLIYGQVAPNANYNDVAPFEVRLYKNKDMIQTLTNKSKIQNVGGTYELHVGDTIDLIFNSEHQVLKNNTYWGIILLANPQFIS
B4: OX40L (ligand, UniProt P23510 51-183, looked up)
chain: QVSHRYPRIQSIKVQFTEYKKEKGFILTSQKEDEIMKVQNNSVIINCDGFYLISLKGYFSQEVNISLHYQKDEEPLFQLKKVRSVNSLMVASLTYKDKVYLNVTTDNTSLDDFHVNGGELILIHQNPGEFCVL

Key:
[1] = target: T1, TMEM149-Fc (human TMEM149 extracellular domain with C-terminal human IgG1 Fc) (human, UniProt Q9H665 23-160); experiment: SPR, binding to immobilised TMEM149-Fc (7,145 RU per paragraph 67)
T1 construct: also called recombinant human TMEM149-Fc; Fc-TMEM149; not shown: human IgG1 Fc, C-terminal
T1 sequence: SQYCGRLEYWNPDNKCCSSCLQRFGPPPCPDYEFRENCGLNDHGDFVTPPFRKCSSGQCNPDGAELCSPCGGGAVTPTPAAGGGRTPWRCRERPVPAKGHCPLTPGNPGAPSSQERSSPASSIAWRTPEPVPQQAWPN
Protocol: (§1) Surface plasmon resonance (SPR) was run on a BiaCore 3000 (GE healthcare, Piscataway, N.J.) at 25° C. using anti-human IgG F(ab′)₂ (Jackson Immunoresearch, West Grove, Pa.) amine-coupled to BiaCore CM5 sensor chips. For kinetic analysis of protein interactions, Fc-fusion proteins at 25 μg/ml were first captured onto sensor chips by injecting them for 3 min at 5 μl/min. Then, test proteins diluted to their indicated concentrations in HBS-P buffer (0.01 M Hepes, pH 7.4 0.15 M NaCl 0.005% Surfactant P20) were injected for 3 min at 30 μl/min. Dissociation in HBS-P buffer alone was then measured at a flow rate of […]. Sensor chips surfaces were regenerated by injecting 10 mM glycine pH 1.5 for 30 s after each cycle. Kinetic parameters were determined by fitting the data to a 1:1 Langmuir model using the Biacore 3000 evaluation software (GE Healthcare).

[2] = target: T1, TMEM149-Fc (human TMEM149 extracellular …); experiment: SPR screen of TNF-like ligands
Protocol: as §1

Row | Binder | binding result [1] | binding result [2]
1 | B1 | binds | 
2 | B2 | no binding (tested: 108 µg/ml) | 
3 | B3 |  | no binding
4 | B4 |  | no binding

From patent publication US20130302347A1 (Genentech, published 2013)
